Data set [1] has as its target INF2-Nterm (human, UniProt Q27J81 1-420). The experiment in a line: fluorescence polarisation. (In general: In fluorescence polarisation assays a small probe gives low polarisation when free and higher when bound to something large.)
Data set [2] concerns the molecule itself. The experiment in a line: AUC.
Data set [3] concerns the target rabbit skeletal muscle actin (rabbit, UniProt P68135 1-377). As to the kind of experiment: pull-down.
In data set [4] the target is chicken skeletal muscle actin (chicken, UniProt P68139 1-377). As to the kind of experiment: pull-down.
Data set [5] addresses fluorescently-labeled rabbit skeletal muscle actin (TMR-actin) (rabbit, UniProt P68135 1-377, TAMRA label (TAMRA NHS ester)). The experiment in a line: pull-down.

This note sets out measurements from publication PMC6501848 (Nature cell biology, 2019).

In general, Kd refers to the equilibrium constant for the complex coming apart. A high value points to lower affinity. One may read the stoichiometry N as a count of units in the complex or per binding partner.

Chain of INF2-Nterm (Q27J81 1-420): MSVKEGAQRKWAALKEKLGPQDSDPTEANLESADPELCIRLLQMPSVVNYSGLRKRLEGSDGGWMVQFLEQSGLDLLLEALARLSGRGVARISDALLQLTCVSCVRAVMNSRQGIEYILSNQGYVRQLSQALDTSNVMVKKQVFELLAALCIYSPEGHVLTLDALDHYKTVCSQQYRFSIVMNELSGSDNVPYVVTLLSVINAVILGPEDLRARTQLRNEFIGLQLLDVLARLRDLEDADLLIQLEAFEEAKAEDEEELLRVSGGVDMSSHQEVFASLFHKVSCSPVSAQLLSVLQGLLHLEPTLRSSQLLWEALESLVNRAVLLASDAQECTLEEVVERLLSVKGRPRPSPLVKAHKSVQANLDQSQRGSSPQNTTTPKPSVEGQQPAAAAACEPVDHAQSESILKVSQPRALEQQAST

B1: INF2-Cterm labeled with tetramethylrhodamine (domain or fragment)
chain: not shown
modifications: tetramethylrhodamine-succinimide (TMR) label
In turn, B1 yielded a Kd in data set [1] of roughly 28 µM.

B2: human CAP2 with C-terminal GFP and Strep-tag II (natural protein)
chain: MANMQGLVERLERAVSRLESLSAESHRPPGNCGEVNGVIAGVAPSVEAFDKLMDSMVAEFLKNSRILAGDVETHAEMVHSAFQAQRAFLLMASQYQQPHENDVAALLKPISEKIQEIQTFRERNRGSNMFNHLSAVSESIPALGWIAVSPKPGPYVKEMNDAATFYTNRVLKDYKHSDLRHVDWVKSYLNIWSELQAYIKEHHTTGLTWSKTGPVASTVSAFSVLSSGPGLPPPPPPLPPPGPPPLFENEGKKEESSPSRSALFAQLNQGEAITKGLRHVTDDQKTYKNPSLRAQGGQTQSPTKSHTPSPTSPKSYPSQKHAPVLELEGKKWRVEYQEDRNDLVISETELKQVAYIFKCEKSTIQIKGKVNSIIIDNCKKLGLVFDNVVGIVEVINSQDIQIQVMGRVPTISINKTEGCHIYLSEDALDCEIVSAKSSEMNILIPQDGDYREFPIPEQFKTAWDGSKLITEPAEIMA
As for B2, in data set [2], the “stoichiometry N” value is 6. Further, the binding result in data set [3], in data set [4] and in data set [5] was “binds” each time.
